Kd data for one molecule are collected here from publication PMC8632965, “CD98-induced CD147 signaling stabilizes the Foxp3 protein to maintain tissue homeostasis” (Cellular and Molecular Immunology, 2021).

The assay concerns the target CDK2 protein (purchased from Sino Biological Inc.) (UniProt P24941 1-298). Kind of assay: SPR; CD147ICD immobilised on a CM5 chip; CDK2 injected at 30 µL/min; BSA signal subtracted. As to conditions: both partners purified. Background: In SPR one partner is held on a chip, and binding of the other changes the refractive index at the surface.

B1: intracellular portion of CD147 (ICD, 230-269) (domain or fragment)
chain: EKRRKPEDVLDDDDAGSAPLKSSGQHQNDKGKNVRQRNSS
notes: CD147 (basigin), human, residues 230-269, intracellular portion; also called CD147’s intracellular domain; CD147’s intracellular segment; source: E. coli OrigamiB (DE3), purified (expressed and purified in the same way as for CD147)
Consider B1, for which the affinity, expressed as Kd, was 16.7 µM.
